B1: EHMT1 (parent)
chain: EEINKNISDFGRQQLLPPFPSLHQ
B2: TRIM43 (parent)
chain: RAQMIRNEYRKLHPVLHKEEKQHL

Variants of: B1
Assay: protein stability index of a GFP-peptide fusion (GPS, HEK-293T) (PSI 1-6); higher = more stable
Details: c terminus: a fixed tail appended
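Further: lentivirally expressed fusions sorted by FACS into six bins by GFP to DsRed ratio, PSI derived from sequencing read proportions per bin multiplied by bin number.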

Protein stability index of substitutions, site by site:
S21: A 2.36 | C 3.06 | D 3.9 | E 3.59 | F 2.59 | G 2.7 | H 3.58 | I 2.62 | K 3.68 | L 2.9 | M 2.01 | N 2.73 | P 3.54 | Q 3.33 | R 3.21 | T 3 | V 2.82 | W 1.98 | Y 2.54
L22: A 3.73 | C 3.82 | D 4.7 | E 4.75 | F 2.79 | G 3.81 | H 3.42 | I 3.18 | K 4.33 | M 3.1 | N 4.04 | P 3.91 | Q 3.65 | R 3.62 | S 4.33 | T 3.85 | V 3.21 | W 2.57 | Y 2.47
H23: A 3.4 | C 2.66 | D 3.85 | E 3.59 | F 2.38 | G 3.14 | I 2.93 | K 3.61 | L 2.53 | M 2.48 | N 3.07 | P 3.17 | Q 3.02 | R 3.08 | S 2.86 | T 3.39 | V 2.97 | W 2.6 | Y 2.14
Q24: A 2.42 | C 1.91 | D 4.02 | E 4.23 | F 2.81 | G 2.53 | H 2.43 | I 2.17 | K 3.55 | L 3.78 | M 2.77 | N 2.9 | P 3.43 | R 2.96 | S 2.5 | T 2.34 | V 2.65 | W 3.45 | Y 2.49

Variants of: B2
Assay: as above
Details: c terminus: a fixed tail appended

Protein stability index of substitutions, site by site:
R1: A 3.44 | C 2.17 | D 3.89 | E 3.29 | F 1.92 | G 3.55 | H 3.47 | I 2.01 | K 2.93 | L 2.33 | M 2.47 | N 3.44 | P 3.38 | Q 3.04 | S 3.78 | T 2.85 | V 3.99 | W 1.92 | Y 1.77
A2: C 3.35 | D 3.51 | E 4.26 | F 1.95 | G 3.61 | H 3.26 | I 2.14 | K 3.2 | L 2.96 | M 2.91 | N 3.18 | P 3.84 | Q 3.09 | R 3.76 | S 2.99 | T 3.17 | V 2.78 | W 2.27 | Y 3.13
Q3: A 2.67 | C 2.68 | D 3.64 | E 3.48 | F 2.33 | G 3.04 | H 3.13 | I 2.78 | K 3.7 | L 2.41 | M 2.82 | N 3.19 | P 3.39 | R 2.81 | S 3.22 | T 3.27 | V 2.63 | W 2.79 | Y 2.54
M4: A 3.49 | C 3.23 | D 3.53 | E 3.86 | F 2.61 | G 3.66 | H 3.46 | I 2.6 | K 3.2 | L 3.2 | N 3.45 | P 3.73 | Q 2.8 | R 3.11 | S 3.07 | T 3.69 | V 3.39 | W 2.44 | Y 2.74
I5: A 4.03 | C 2.02 | D 4.2 | E 4.06 | G 3.79 | H 3.56 | K 3.21 | L 3.92 | M 3.39 | N 4.04 | P 3.83 | Q 3.89 | S 3.67 | V 3.15 | W 2.87 | Y 2.92
R6: A 3.07 | C 3.67 | D 4.3 | E 3.48 | F 2.44 | G 3.96 | H 3.54 | I 1.89 | K 3.39 | L 2.15 | M 2.19 | N 4.15 | P 3.57 | Q 3.63 | S 3.52 | T 3.89 | V 3.52 | W 1.77 | Y 2.57
N7: A 2.39 | C 3 | D 3.35 | E 2.32 | F 2.44 | G 3.08 | H 3.28 | I 2.57 | K 3.44 | L 3.49 | M 2.98 | P 4.17 | Q 3.33 | R 3.15 | S 2.83 | T 3.3 | V 2.64 | W 1.96 | Y 2.74
E8: A 2.16 | C 2.59 | D 3.21 | F 2.91 | G 2.84 | H 2.78 | I 2.39 | K 2.92 | L 1.75 | M 2.2 | N 3 | P 2.72 | Q 2.75 | R 2.89 | S 2.91 | T 2.56 | V 2.33 | W 1.33 | Y 2.51
Y9: A 4.04 | C 3.79 | D 4.24 | E 3.96 | F 3.35 | G 3.96 | H 4.12 | I 3.03 | K 3.65 | L 3.25 | M 3.97 | N 3.79 | P 3.93 | Q 4.31 | R 3.84 | S 3.46 | T 4.08 | V 3.91 | W 2.44
R10: A 3.08 | C 3.19 | D 4.21 | E 4.09 | F 3.4 | G 3.26 | H 3.39 | I 3.75 | K 2.91 | L 3.38 | M 2.91 | N 3.66 | P 3.76 | Q 3.84 | S 3.71 | T 3.85 | V 3.73 | W 2.99 | Y 3.31
K11: A 3.14 | C 2.79 | D 4.29 | E 4.15 | F 3.24 | G 3.76 | H 3.94 | I 2.94 | L 3.49 | M 3.35 | N 3.68 | P 4.16 | Q 3.51 | R 3.4 | S 2.96 | T 3.42 | V 3.4 | W 3.14 | Y 3.07
L12: A 3.67 | C 3.03 | D 4.02 | E 4.06 | F 2.94 | G 4.18 | H 4.27 | I 3.07 | K 3.7 | M 2.86 | N 4.16 | P 3.96 | Q 3.36 | R 3.94 | S 4.43 | T 3.85 | V 2.97 | W 2.96 | Y 3.75
H13: A 3.46 | C 3 | D 3.75 | E 4.06 | F 2.82 | G 3.2 | I 2.92 | K 3.55 | L 3.28 | M 2.94 | N 3.35 | P 3.19 | Q 3.56 | R 2.69 | S 3.4 | T 3.1 | V 3.11 | W 2.61 | Y 2.83
P14: A 2.53 | C 2.42 | D 3.33 | E 3.28 | F 2.95 | G 3.11 | H 2.28 | I 2.44 | K 2.7 | L 3.51 | M 2.5 | N 2.64 | Q 2.51 | R 3.23

— the supplement of paper PMC10567573
